The labels stand for the following.
B1: WSB1 (parent)
chain: DLKDDGNMMKVLRGHQNWVYSCAF
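Note: lentivirally expressed fusions sorted by FACS into six bins by GFP to DsRed ratio, PSI derived from sequencing read proportions per bin multiplied by bin number.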

The series covers variants of B1. As to the kind of experiment: protein stability index of a GFP-peptide fusion (GPS, HEK-293T) (PSI 1-6); higher = more stable. The settings on record: c terminus: a fixed tail appended.
For the variant DLKDDGNMMKVLRGHQNWVYSCKF [A23K], the protein stability index amounted to 1.31. With DLKDDGNMMKVLRGHQNWVYSCRF [A23R] the figure was 2.36. In the case of DLKDDGNMMKVLRGHQNWVYSCIF [A23I], the protein stability index came out at 1.43. As for DLKDDGNMMKVLRGHQNWVYSCPF [A23P], the protein stability index was 2.5.

DLKDDGNMMKVLRGHQNWVYSCGF [A23G]: the protein stability index amounted to 1.73. The figure for DLKDDGNMMKVLRGHQNWVYSCVF [A23V] is 1.71. For the variant DLKDDGNMMKVLRGHQNWVYSCFF [A23F], the protein stability index was found to be 2.17.

In the case of DLKDDGNMMKVLRGHQNWVYSCHF [A23H], the protein stability index is 1.75.

On to DLKDDGNMMKVLRGHQNWVYSCYF [A23Y], for which the protein stability index amounted to 2.29. The figure for DLKDDGNMMKVLRGHQNWVYSCLF [A23L] is 1.22; for DLKDDGNMMKVLRGHQNWVYSCTF [A23T] it is 1.6. DLKDDGNMMKVLRGHQNWVYSCMF [A23M]: the protein stability index was 1.44. The figure for DLKDDGNMMKVLRGHQNWVYSCCF [A23C] is 2.5; for DLKDDGNMMKVLRGHQNWVYSCSF [A23S] it is 2.94. Take DLKDDGNMMKVLRGHQNWVYSCNF [A23N]: the protein stability index was 2.22.

In the case of DLKDDGNMMKVLRGHQNWVYSCAV [F24V], the protein stability index worked out at 2.97. Consider DLKDDGNMMKVLRGHQNWVYSCAW [F24W], for which the protein stability index turned out to be 4.14. For DLKDDGNMMKVLRGHQNWVYSCAM [F24M], the protein stability index was 2.27.

DLKDDGNMMKVLRGHQNWVYSCAK [F24K]: the protein stability index is 2.34. The figure for DLKDDGNMMKVLRGHQNWVYSCAD [F24D] is 3.3. Take DLKDDGNMMKVLRGHQNWVYSCAT [F24T]: the protein stability index was determined as 1.98.

In the case of DLKDDGNMMKVLRGHQNWVYSCAQ [F24Q], the protein stability index was determined as 2.21. The figure for DLKDDGNMMKVLRGHQNWVYSCAL [F24L] is 3.07; for DLKDDGNMMKVLRGHQNWVYSCAA [F24A] it is 2.14; for DLKDDGNMMKVLRGHQNWVYSCAI [F24I] it is 2.28. With DLKDDGNMMKVLRGHQNWVYSCAC [F24C] the figure was 1.47; with DLKDDGNMMKVLRGHQNWVYSCAN [F24N], 2.18; with DLKDDGNMMKVLRGHQNWVYSCAY [F24Y], 2.38. As for DLKDDGNMMKVLRGHQNWVYSCAP [F24P], the protein stability index was 2.95. The figure for DLKDDGNMMKVLRGHQNWVYSCAH [F24H] is 3.34; for DLKDDGNMMKVLRGHQNWVYSCAG [F24G] it is 2.19. With DLKDDGNMMKVLRGHQNWVYSCAR [F24R] the figure was 2.33.

Regarding DLKDDGNMMKVLRGHQNWVYSCAS [F24S], the protein stability index was 2.89. With DLKDDGNMMKVLRGHQNWVYSCAE [F24E] the figure was 1.82.

Turning to DLKDDGNMMKVLRGHQNKVYSCAF [W18K], the protein stability index came to 1.46. The figure for DLKDDGNMMKVLRGHQNNVYSCAF [W18N] is 2.24. As for DLKDDGNMMKVLRGHQNHVYSCAF [W18H], the protein stability index came out at 2.34. In the case of DLKDDGNMMKVLRGHQNYVYSCAF [W18Y], the protein stability index was 2.09.

With DLKDDGNMMKVLRGHQNFVYSCAF [W18F], the protein stability index worked out at 1.47. The figure for DLKDDGNMMKVLRGHQNSVYSCAF [W18S] is 2.7; for DLKDDGNMMKVLRGHQNDVYSCAF [W18D] it is 1.69; for DLKDDGNMMKVLRGHQNEVYSCAF [W18E] it is 2.62. Consider DLKDDGNMMKVLRGHQNMVYSCAF [W18M], for which the protein stability index worked out at 2.75.

For DLKDDGNMMKVLRGHQNQVYSCAF [W18Q], the protein stability index is 2.73. The figure for DLKDDGNMMKVLRGHQNVVYSCAF [W18V] is 1.07; for DLKDDGNMMKVLRGHQNTVYSCAF [W18T] it is 2.08. With DLKDDGNMMKVLRGHQNIVYSCAF [W18I] the figure was 2.35; with DLKDDGNMMKVLRGHQNPVYSCAF [W18P], 1.86; with DLKDDGNMMKVLRGHQNGVYSCAF [W18G], 2.21. With DLKDDGNMMKVLRGHQNCVYSCAF [W18C] the figure was 2.38; with DLKDDGNMMKVLRGHQNAVYSCAF [W18A], 2.49. For the variant DLKDDGNMMKVLRGHQNRVYSCAF [W18R], the protein stability index came to 1.65. Regarding DLKDDGNMMKVLRGHQNLVYSCAF [W18L], the protein stability index was determined as 2.88. For the variant DLKDDGNMMKVLRGHQAWVYSCAF [N17A], the protein stability index is 2.33. With DLKDDGNMMKVLRGHQSWVYSCAF [N17S] the figure was 1.81; with DLKDDGNMMKVLRGHQPWVYSCAF [N17P], 1.86; with DLKDDGNMMKVLRGHQKWVYSCAF [N17K], 2.1.

Take DLKDDGNMMKVLRGHQHWVYSCAF [N17H]: the protein stability index was 1.26.

For the variant DLKDDGNMMKVLRGHQEWVYSCAF [N17E], the protein stability index is 1.68. The figure for DLKDDGNMMKVLRGHQQWVYSCAF [N17Q] is 2.95; for DLKDDGNMMKVLRGHQRWVYSCAF [N17R] it is 2.05.

As to DLKDDGNMMKVLRGHQGWVYSCAF [N17G], the protein stability index is 1.78. As to DLKDDGNMMKVLRGHQDWVYSCAF [N17D], the protein stability index is 1.94. DLKDDGNMMKVLRGHQFWVYSCAF [N17F]: the protein stability index was found to be 2.34. With DLKDDGNMMKVLRGHQNWVVSCAF [Y20V] the figure was 3.3; with DLKDDGNMMKVLRGHQNWVASCAF [Y20A], 2.28.

DLKDDGNMMKVLRGHQNWVKSCAF [Y20K]: the protein stability index amounted to 1.39. Turning to DLKDDGNMMKVLRGHQNWVDSCAF [Y20D], the protein stability index was 1.69. DLKDDGNMMKVLRGHQNWVFSCAF [Y20F]: the protein stability index is 1.66. Consider DLKDDGNMMKVLRGHQNWVPSCAF [Y20P], for which the protein stability index is 1.84. The figure for DLKDDGNMMKVLRGHQNWVHSCAF [Y20H] is 2.06; for DLKDDGNMMKVLRGHQNWVESCAF [Y20E] it is 1.6. The figure for DLKDDGNMMKVLRGHQNWVCSCAF [Y20C] is 3.17; for DLKDDGNMMKVLRGHQNWVWSCAF [Y20W] it is 2.28. With DLKDDGNMMKVLRGHQNWVMSCAF [Y20M] the figure was 1.61. In the case of DLKDDGNMMKVLRGHQNWVLSCAF [Y20L], the protein stability index was 2.57. The figure for DLKDDGNMMKVLRGHQNWVGSCAF [Y20G] is 1.97; for DLKDDGNMMKVLRGHQNWVRSCAF [Y20R] it is 2.05. As for DLKDDGNMMKVLRGHQNWVSSCAF [Y20S], the protein stability index came to 1.83. As to DLKDDGNMMKVLRGHQNWVQSCAF [Y20Q], the protein stability index worked out at 1.68.

In the case of DLKDDGNMMKVLRGHQNWVTSCAF [Y20T], the protein stability index is 2.63.

For DLKDDGNMMKVLRGHPNWVYSCAF [Q16P], the protein stability index turned out to be 2.52. The figure for DLKDDGNMMKVLRGHKNWVYSCAF [Q16K] is 2.41; for DLKDDGNMMKVLRGHVNWVYSCAF [Q16V] it is 1.52; for DLKDDGNMMKVLRGHSNWVYSCAF [Q16S] it is 2.54. As for DLKDDGNMMKVLRGHNNWVYSCAF [Q16N], the protein stability index is 1.79. The figure for DLKDDGNMMKVLRGHLNWVYSCAF [Q16L] is 1.48; for DLKDDGNMMKVLRGHMNWVYSCAF [Q16M] it is 2.04. Consider DLKDDGNMMKVLRGHENWVYSCAF [Q16E], for which the protein stability index stood at 2.36.

Regarding DLKDDGNMMKVLRGHHNWVYSCAF [Q16H], the protein stability index came to 2.75. With DLKDDGNMMKVLRGHFNWVYSCAF [Q16F] the figure was 2.8; with DLKDDGNMMKVLRGHINWVYSCAF [Q16I], 2.04. DLKDDGNMMKVLRGHYNWVYSCAF [Q16Y]: the protein stability index is 1.4. The figure for DLKDDGNMMKVLRGHTNWVYSCAF [Q16T] is 2.79.

The record behind these values is the supplement of paper PMC10567573.
